Source: patent publication US20220306751A1 (MYTHIC THERAPEUTICS, published 2022)

T1: CD123 Protein, His Tag, Acro Biosciences Cat. No. ILA-H52H6 (Homo sapiens (Human), UniProt P26951 19-305)
T1 construct: Bought protein; not shown: His tag
T1 sequence: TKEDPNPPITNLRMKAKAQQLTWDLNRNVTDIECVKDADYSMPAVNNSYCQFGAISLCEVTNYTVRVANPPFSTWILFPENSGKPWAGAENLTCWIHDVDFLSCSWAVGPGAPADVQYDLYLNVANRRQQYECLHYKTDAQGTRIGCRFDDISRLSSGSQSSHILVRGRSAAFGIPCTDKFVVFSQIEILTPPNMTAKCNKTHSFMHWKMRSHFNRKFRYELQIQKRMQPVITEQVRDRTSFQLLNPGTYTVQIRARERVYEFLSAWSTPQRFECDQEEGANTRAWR


Molecular target: T1, CD123 Protein, His Tag, Acro …
Assay: BLI, IgG on anti-human Fc sensor, 50 nM CD123, pH 7.4 and pH 5.4
Source text: We selected IMGN632 (Heavy chain SEQ ID NO: 1, Light chain SEQ ID NO: 2) as a CD123-binding monoclonal antibody for pH engineering via histidine scanning. Briefly, CDRs in the heavy chain were identified using the methods described by Kabat et al (Kabat et al. (1992) Sequences of Proteins of Immunological Interest, DIANE publishing) and IMGT (Lefranc M P (1999) “The IMGT unique numbering for Immunoglobulins, T cell receptors and Ig-like domains” The Immunologist 7, 132-136), and for each CDR, residues falling under either or both Kabat and IMGT CDR definitions were called as CDR residues. To generate pH-dependent sequence variants, individual amino acid residues within the heavy chain CDRs were systematically substituted with a histidine, one at a time (MYT1252-MYT1292). In cases where the starting CDR residue was a histidine, it was mutated to an alanine. Antibody variants with only one histidine or alanine mutation in a heavy chain CDR were generated by co-transfection of Expi293 cells with a) one heavy chain sequence variant, and b) the corresponding starting ABPC light chain using methods known to the art. After allowing for four days of protein expression, cell culture supernatants were collected, quantified by SDS-PAGE analysis (FIG. 1), and the pH dependence of the variant was evaluated using biolayer interferometry (BLI) on an Octet RED 384 instrument. For constructs MYT1252, MYT1254-MYT1287, and MYT1289-1292, 104, of cell culture supernatant was diluted into 1904, of 1× PBST pH 7.4. For MYT1253 and MYT1288 254, and 504, of cell culture supernatant was diluted into 1754, and 1504, respectively. […] The resulting diluted supernatants were then captured on an anti-human Fc sensor (Forte Bio). A baseline was established using 1× PBST (50 mM Potassium Phosphate Buffer+150 mM NaCl+0.05% Tween 20) pH 7.4, and the sensor was associated with 50 nM of CD123 (CD123 Protein, His Tag, Acro Biosciences Cat. No. ILA-H52H6, Lot No. 1741d-89CF1-KB) in 1×PBST pH 7.4 for 120 sec to generate an association curve. In the dissociation phase, the antibody-antigen complex on the sensor was exposed to 1× PBST pH 7.4 for 300-600 sec. Baseline, association, and dissociation were repeated using 1×PBST pH 5.4 throughout in a separate condition.

binding result	Binder
binds	MYT1253 (antibody, V domains shown, IgG) VH: QVQLVQSGAEVKKPGASVKVSCKASGHIFTSSIMHWVRQAPGQGLEWIGYIKPYNDGTKYNEKFKGRATLTSDRSTSTAYMELSSLRSEDTAVYYCAREGGNDYYDTMDYWGQGTLVTVSS VL: DIQMTQSPSSLSASVGDRVTITCRASQDINSYLSWFQQKPGKAPKTLIYRVNRLVDGVPSRFSGSGSGNDYTLTISSLQPEDFATYYCLQYDAFPYTFGQGTKVEIK
binds	MYT1255 (antibody, V domains shown, IgG) VH: QVQLVQSGAEVKKPGASVKVSCKASGYIHTSSIMHWVRQAPGQGLEWIGYIKPYNDGTKYNEKFKGRATLTSDRSTSTAYMELSSLRSEDTAVYYCAREGGNDYYDTMDYWGQGTLVTVSS VL: DIQMTQSPSSLSASVGDRVTITCRASQDINSYLSWFQQKPGKAPKTLIYRVNRLVDGVPSRFSGSGSGNDYTLTISSLQPEDFATYYCLQYDAFPYTFGQGTKVEIK
binds	MYT1267 (antibody, V domains shown, IgG) VH: QVQLVQSGAEVKKPGASVKVSCKASGYIFTSSIMHWVRQAPGQGLEWIGYIKPYHDGTKYNEKFKGRATLTSDRSTSTAYMELSSLRSEDTAVYYCAREGGNDYYDTMDYWGQGTLVTVSS VL: DIQMTQSPSSLSASVGDRVTITCRASQDINSYLSWFQQKPGKAPKTLIYRVNRLVDGVPSRFSGSGSGNDYTLTISSLQPEDFATYYCLQYDAFPYTFGQGTKVEIK
binds	MYT1252 (antibody, V domains shown, IgG) VH: QVQLVQSGAEVKKPGASVKVSCKASHYIFTSSIMHWVRQAPGQGLEWIGYIKPYNDGTKYNEKFKGRATLTSDRSTSTAYMELSSLRSEDTAVYYCAREGGNDYYDTMDYWGQGTLVTVSS VL: DIQMTQSPSSLSASVGDRVTITCRASQDINSYLSWFQQKPGKAPKTLIYRVNRLVDGVPSRFSGSGSGNDYTLTISSLQPEDFATYYCLQYDAFPYTFGQGTKVEIK
binds	MYT1256 (antibody, V domains shown, IgG) VH: QVQLVQSGAEVKKPGASVKVSCKASGYIFHSSIMHWVRQAPGQGLEWIGYIKPYNDGTKYNEKFKGRATLTSDRSTSTAYMELSSLRSEDTAVYYCAREGGNDYYDTMDYWGQGTLVTVSS VL: DIQMTQSPSSLSASVGDRVTITCRASQDINSYLSWFQQKPGKAPKTLIYRVNRLVDGVPSRFSGSGSGNDYTLTISSLQPEDFATYYCLQYDAFPYTFGQGTKVEIK
binds	MYT1260 (antibody, V domains shown, IgG) VH: QVQLVQSGAEVKKPGASVKVSCKASGYIFTSSIHHWVRQAPGQGLEWIGYIKPYNDGTKYNEKFKGRATLTSDRSTSTAYMELSSLRSEDTAVYYCAREGGNDYYDTMDYWGQGTLVTVSS VL: DIQMTQSPSSLSASVGDRVTITCRASQDINSYLSWFQQKPGKAPKTLIYRVNRLVDGVPSRFSGSGSGNDYTLTISSLQPEDFATYYCLQYDAFPYTFGQGTKVEIK
binds	MYT1266 (antibody, V domains shown, IgG) VH: QVQLVQSGAEVKKPGASVKVSCKASGYIFTSSIMHWVRQAPGQGLEWIGYIKPHNDGTKYNEKFKGRATLTSDRSTSTAYMELSSLRSEDTAVYYCAREGGNDYYDTMDYWGQGTLVTVSS VL: DIQMTQSPSSLSASVGDRVTITCRASQDINSYLSWFQQKPGKAPKTLIYRVNRLVDGVPSRFSGSGSGNDYTLTISSLQPEDFATYYCLQYDAFPYTFGQGTKVEIK
binds	MYT1254 (antibody, V domains shown, IgG) VH: QVQLVQSGAEVKKPGASVKVSCKASGYHFTSSIMHWVRQAPGQGLEWIGYIKPYNDGTKYNEKFKGRATLTSDRSTSTAYMELSSLRSEDTAVYYCAREGGNDYYDTMDYWGQGTLVTVSS VL: DIQMTQSPSSLSASVGDRVTITCRASQDINSYLSWFQQKPGKAPKTLIYRVNRLVDGVPSRFSGSGSGNDYTLTISSLQPEDFATYYCLQYDAFPYTFGQGTKVEIK
binds	MYT1262 (antibody, V domains shown, IgG) VH: QVQLVQSGAEVKKPGASVKVSCKASGYIFTSSIMHWVRQAPGQGLEWIGHIKPYNDGTKYNEKFKGRATLTSDRSTSTAYMELSSLRSEDTAVYYCAREGGNDYYDTMDYWGQGTLVTVSS VL: DIQMTQSPSSLSASVGDRVTITCRASQDINSYLSWFQQKPGKAPKTLIYRVNRLVDGVPSRFSGSGSGNDYTLTISSLQPEDFATYYCLQYDAFPYTFGQGTKVEIK
binds	MYT1257 (antibody, V domains shown, IgG) VH: QVQLVQSGAEVKKPGASVKVSCKASGYIFTHSIMHWVRQAPGQGLEWIGYIKPYNDGTKYNEKFKGRATLTSDRSTSTAYMELSSLRSEDTAVYYCAREGGNDYYDTMDYWGQGTLVTVSS VL: DIQMTQSPSSLSASVGDRVTITCRASQDINSYLSWFQQKPGKAPKTLIYRVNRLVDGVPSRFSGSGSGNDYTLTISSLQPEDFATYYCLQYDAFPYTFGQGTKVEIK
binds	MYT1263 (antibody, V domains shown, IgG) VH: QVQLVQSGAEVKKPGASVKVSCKASGYIFTSSIMHWVRQAPGQGLEWIGYHKPYNDGTKYNEKFKGRATLTSDRSTSTAYMELSSLRSEDTAVYYCAREGGNDYYDTMDYWGQGTLVTVSS VL: DIQMTQSPSSLSASVGDRVTITCRASQDINSYLSWFQQKPGKAPKTLIYRVNRLVDGVPSRFSGSGSGNDYTLTISSLQPEDFATYYCLQYDAFPYTFGQGTKVEIK
binds	MYT1259 (antibody, V domains shown, IgG) VH: QVQLVQSGAEVKKPGASVKVSCKASGYIFTSSHMHWVRQAPGQGLEWIGYIKPYNDGTKYNEKFKGRATLTSDRSTSTAYMELSSLRSEDTAVYYCAREGGNDYYDTMDYWGQGTLVTVSS VL: DIQMTQSPSSLSASVGDRVTITCRASQDINSYLSWFQQKPGKAPKTLIYRVNRLVDGVPSRFSGSGSGNDYTLTISSLQPEDFATYYCLQYDAFPYTFGQGTKVEIK
binds	MYT1261 (antibody, V domains shown, IgG) VH: QVQLVQSGAEVKKPGASVKVSCKASGYIFTSSIMAWVRQAPGQGLEWIGYIKPYNDGTKYNEKFKGRATLTSDRSTSTAYMELSSLRSEDTAVYYCAREGGNDYYDTMDYWGQGTLVTVSS VL: DIQMTQSPSSLSASVGDRVTITCRASQDINSYLSWFQQKPGKAPKTLIYRVNRLVDGVPSRFSGSGSGNDYTLTISSLQPEDFATYYCLQYDAFPYTFGQGTKVEIK
binds	MYT1258 (antibody, V domains shown, IgG) VH: QVQLVQSGAEVKKPGASVKVSCKASGYIFTSHIMHWVRQAPGQGLEWIGYIKPYNDGTKYNEKFKGRATLTSDRSTSTAYMELSSLRSEDTAVYYCAREGGNDYYDTMDYWGQGTLVTVSS VL: DIQMTQSPSSLSASVGDRVTITCRASQDINSYLSWFQQKPGKAPKTLIYRVNRLVDGVPSRFSGSGSGNDYTLTISSLQPEDFATYYCLQYDAFPYTFGQGTKVEIK
binds	MYT1265 (antibody, V domains shown, IgG) VH: QVQLVQSGAEVKKPGASVKVSCKASGYIFTSSIMHWVRQAPGQGLEWIGYIKHYNDGTKYNEKFKGRATLTSDRSTSTAYMELSSLRSEDTAVYYCAREGGNDYYDTMDYWGQGTLVTVSS VL: DIQMTQSPSSLSASVGDRVTITCRASQDINSYLSWFQQKPGKAPKTLIYRVNRLVDGVPSRFSGSGSGNDYTLTISSLQPEDFATYYCLQYDAFPYTFGQGTKVEIK
